The values that follow come from PMC9409277, “Ethyl Vinyl Ketone Activates K^+ Efflux to Regulate Stomatal Closure by MRP4-Dependent eATP Accumulation Working Upstream of H2O2 Burst in Arabidopsis” (International Journal of Molecular Sciences, 2022).

The target of assay [1] is T1, DORN1-GST (DORN1 residues 344-616 in pGEX-4T-1) (Arabidopsis thaliana (Mouse-ear cress), UniProt Q9LSR8).
T1 chain: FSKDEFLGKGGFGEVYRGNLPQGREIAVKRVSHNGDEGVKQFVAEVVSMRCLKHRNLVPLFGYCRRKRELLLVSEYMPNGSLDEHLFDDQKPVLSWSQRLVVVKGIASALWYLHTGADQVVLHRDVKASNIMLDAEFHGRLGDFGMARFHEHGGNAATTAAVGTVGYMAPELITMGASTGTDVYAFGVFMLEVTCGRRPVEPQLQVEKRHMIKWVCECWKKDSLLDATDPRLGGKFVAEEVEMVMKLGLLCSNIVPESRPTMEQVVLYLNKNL
Description: GST pulldown with anti-His immunoblot.

Assay [2] deals with T2, RBOHF-His (RBOHF residues 1-387 in pET28A) (Arabidopsis, UniProt O48538 1-387).
T2 construct: RBOHF of Arabidopsis (AT1G64060), residues 1-387; Cloned into pET28A via EcoRI/XhoI; also called RBOHF with His tag; source: E. coli Rosetta (DE3)
T2 sequence (looked up): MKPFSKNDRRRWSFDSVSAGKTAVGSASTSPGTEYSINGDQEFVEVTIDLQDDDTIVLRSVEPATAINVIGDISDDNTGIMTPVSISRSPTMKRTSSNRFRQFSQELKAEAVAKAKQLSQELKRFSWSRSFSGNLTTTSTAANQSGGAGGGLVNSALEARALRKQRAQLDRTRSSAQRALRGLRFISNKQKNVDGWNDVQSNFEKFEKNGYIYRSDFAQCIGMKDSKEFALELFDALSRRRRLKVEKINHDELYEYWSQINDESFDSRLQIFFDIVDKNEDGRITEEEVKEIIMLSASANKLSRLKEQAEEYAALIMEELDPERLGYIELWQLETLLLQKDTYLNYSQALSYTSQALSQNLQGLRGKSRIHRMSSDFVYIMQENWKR
The assay is described as follows: pull-down; glutathione beads with 50 µg DORN1-GST or GST incubated with 50 µg RBOHF-His; 1% NP40, 150 mM NaCl, 50 mM Tris-HCl, 1 mM EDTA, pH 7.5; 4 °C, 2 h; immunoblot with anti-GST and anti-His. As to conditions: both partners purified. Background: In western blotting, separated proteins are transferred to a membrane and probed.

B1: RBOHF-His (RBOHF residues 1-387 in pET28A) (protein)
chain: T2 sequence (looked up)
In the case of B1, the binding result in assay [1] is recorded as “binds”.

B2: DORN1-GST (DORN1 residues 344-616 in pGEX-4T-1) (domain or fragment, Arabidopsis, UniProt Q9LSR8 344-616, looked up)
chain: T1 chain
notes: DORN1 of Arabidopsis (AT5G60300), residues 344-616; Printed both as DORN1-GST and as GST–DORN1; cloned into pGEX-4T-1 via EcoRI/XhoI; also called DORN-GST; source: E. coli Rosetta (DE3), on glutathione beads
Consider B2, for which, in assay [2], the binding result was “binds”.
